Test results as given in PMC7042235, “Structural basis for two-way communication between dynein and microtubules” (Nature Communications, 2020).

Molecular target: T1, microtubules (polymerized porcine tubulin) (porcine, UniProt P02550 1-451; P02554 1-445)
T1 construct: alpha-tubulin of porcine tubulin; beta-tubulin of porcine tubulin; Polymer of alpha/beta-tubulin dimers; 14-protofilament MTs were selected for cryo-EM; The species is stated only for the co-sedimentation assay; also called MT; MTs; source: porcine tubulin, polymerized (stabilised with 10 uM paclitaxel for co-sedimentation; GMPCPP-MT for cryo-EM)
Test: co-sedimentation; purified MTBDs (1-32 uM) mixed with 5 uM paclitaxel-stabilised porcine MTs; 100 mM PIPES pH 6.8, 50 mM NaCl, 2 mM MgCl2, 1 mM EGTA; 210,000 x g, 25 °C, 10 min; pellets on SDS-PAGE, densitometry, one-site curve fitting
Details: both partners purified

B1: MTBD-Low, MTBD(S3097C/V3222C) (domain or fragment)
chain: KCIQDIEPTILEAQRGVKNIKKQQLTEIRSMVNPPSGVKIVMEAVCAILGYQFSNWRDIQQFIRKDDFIHNIVHYDTTLHMKPQIRKYMEEEFLSDPNFTYETINRASKACGPLYQWVNAQINFSKCLENVDPLRQE
modifications: intramolecular disulfide bond between C3097 (CC1) and C3222 (CC2)
Kd: > 200 µM
